Experimental data as given in publication PMC2563026.

Tests used:
[1] = molecular target: chimeric receptor bearing feline CD134 CRD1 in the context of human CD134, on cells (feline | human)
[2] = molecular target: CXCR4, endogenous on feline cells (feline (endogenous in MCC)) (UniProt P56498)
[3] = molecular target: CXCR4, endogenous on feline cells (feline (endogenous in MCC)) (UniProt P56498); assay: flow cytometry on cells; MCC cells stably transduced with fCD134, the CRD1 chimera, human CD134 or vector only were incubated with Fc-SU fusion proteins; bound protein detected with PE-anti-human IgG Fc; 10,000 events

Sequence of UniProt P56498 (P56498 whole entry, the tested form may be a part): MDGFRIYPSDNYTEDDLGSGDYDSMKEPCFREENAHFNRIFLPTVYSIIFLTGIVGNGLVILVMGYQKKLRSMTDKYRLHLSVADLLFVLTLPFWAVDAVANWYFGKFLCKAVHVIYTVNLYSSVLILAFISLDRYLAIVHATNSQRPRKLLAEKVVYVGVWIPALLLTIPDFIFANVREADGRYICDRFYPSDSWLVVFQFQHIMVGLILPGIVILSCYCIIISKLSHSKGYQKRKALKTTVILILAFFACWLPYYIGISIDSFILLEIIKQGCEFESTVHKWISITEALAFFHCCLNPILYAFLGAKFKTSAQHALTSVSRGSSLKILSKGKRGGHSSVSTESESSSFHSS

Substance | infection of MCC-CRD1 cells by HIV(FIV) luciferase pseudotypes, fold reduction [1] | entry of HIV(FIV) pseudotypes into MYA-1 cells with the CXCR4 antagonist AMD3100 at 0.1 μg/ml, fold reduction [2] | also measured
FIV GL8 Env Δ2N double mutant (T271I and N342Y), on HIV(FIV) luciferase pseudotypes (natural protein) | 47 fold | – | –
FIV GL8 Env T271I, on HIV(FIV) luciferase pseudotypes (natural protein) | 27 fold | – | –
FIV CPG41 Env, wild type, on HIV(FIV) luciferase pseudotypes (natural protein) | – | 5 fold | –
FIV GL8 Env, wild type, on HIV(FIV) luciferase pseudotypes (natural protein) | – | 100 fold | infection of MCC-CRD1 cells by HIV(FIV) luciferase pseudotypes, fold less efficient than on MCC cells expressing CD134 [1]: 300 fold
FIV GL8 Env SU-Fc fusion protein, wild type | – | – | percent binding of Fc-SU (human CD134-expressing MCC cells) [3]: 17.2%
